Test results taken from FireProtDB (doi:10.1016/j.bpc.2006.10.013).

B1: Rubredoxin, P00268 (parent)
chain: MKKYTCTVCGYIYNPEDGDPDNGVNPGTDFKDIPDDWVCPLCGVGKDQFEEVEE
B2: Rubredoxin, P24297 (parent)
chain: MAKWVCKICGYIYDEDAGDPDNGISPGTKFEELPDDWVCPICGAPKSEFEKLED

What was measured:
[1] = variants of: B1; conditions: Clostridium pasteurianum, pH 9.08, Thermal, NMR, Sodium borate 100 mM, reversible: Yes, structure 1IRO, whole UniProt chain shown
[2] = variants of: B2; conditions: Pyrococcus furiosus (strain ATCC 43587 / DSM 3638 / JCM 8422 / Vc1), pH 9.08, Thermal, NMR, Sodium borate 100 mM, reversible: Yes, structure 1BRF, whole UniProt chain shown

Row | Variant | Tm [1] [°C] | heat capacity change of unfolding [1] [kcal/mol/K] | unfolding enthalpy (van 't Hoff) [1] [kcal/mol] | ddG of mutation (higher = less stable) [1] [kcal/mol] | ddG of mutation (higher = less stable) ([1]; 107 °C) [kcal/mol] | heat capacity change of unfolding ([1]; 107 °C) [kcal/mol/K] | ddG of mutation (higher = less stable) ([2]; 133.6 °C) [kcal/mol] | heat capacity change of unfolding ([2]; 133.6 °C) [kcal/mol/K] | Tm [2] [°C] | heat capacity change of unfolding [2] [kcal/mol/K] | unfolding enthalpy (van 't Hoff) [2] [kcal/mol]
1 | MKKWTCTVCGYIYNPEDGDPDNGINPGTDFKDLPDDWVCPLCGVGKDQFEEVEE [Y4W V24I I33L] | 114 | 0.5 | 63 | – | – | – | – | – | – | – | –
2 | MKKYTCTVCGYIYNPEDGDPDNGINPGTDFKDLPDDWVCPLCGVGKDQFEEVEE [V24I I33L] | 115 | 0.5 | 65 | -1.31 | – | – | – | – | – | – | –
3 | MKKYTCTVCGYIYNPEDGDPDNGVNPGTDFKDLPDDWVCPLCGVGKDQFEEVEE [I33L] | 112 | 0.5 | 64 | -0.76 | -0.76 | 0.5 | – | – | – | – | –
4 | MKKYTCTVCGYIYNPEDGDPDNGINPGTDFKDIPDDWVCPLCGVGKDQFEEVEE [V24I] | 110 | 0.5 | 59 | -0.36 | -0.36 | 0.5 | – | – | – | – | –
5 | MAKWVCKICGYIYDEDAGDPDNGISPGTKFEEIPDDWVCPICGAPKSEFEKLED [L33I] | – | – | – | – | – | – | 0.88 | 0.5 | – | – | –
6 | MAKWVCKICGYIYDEDAGDPDNGVSPGTKFEELPDDWVCPICGAPKSEFEKLED [I24V] | – | – | – | – | – | – | – | 0.5 | 136 | 0.5 | 74
7 | MAKWVCKICGYIYDEDAGDPDNGVSPGTKFEEIPDDWVCPICGAPKSEFEKLED [I24V L33I] | – | – | – | – | – | – | – | – | 133 | 0.5 | 62
